Experiment [1] addresses T1, recombinant his-tagged human Cad-11 (R&D Systems) (human, UniProt P55287 54-617).
T1 construct: also called rhCad-11; recombinant human Cad-11; not shown: his tag
T1 sequence: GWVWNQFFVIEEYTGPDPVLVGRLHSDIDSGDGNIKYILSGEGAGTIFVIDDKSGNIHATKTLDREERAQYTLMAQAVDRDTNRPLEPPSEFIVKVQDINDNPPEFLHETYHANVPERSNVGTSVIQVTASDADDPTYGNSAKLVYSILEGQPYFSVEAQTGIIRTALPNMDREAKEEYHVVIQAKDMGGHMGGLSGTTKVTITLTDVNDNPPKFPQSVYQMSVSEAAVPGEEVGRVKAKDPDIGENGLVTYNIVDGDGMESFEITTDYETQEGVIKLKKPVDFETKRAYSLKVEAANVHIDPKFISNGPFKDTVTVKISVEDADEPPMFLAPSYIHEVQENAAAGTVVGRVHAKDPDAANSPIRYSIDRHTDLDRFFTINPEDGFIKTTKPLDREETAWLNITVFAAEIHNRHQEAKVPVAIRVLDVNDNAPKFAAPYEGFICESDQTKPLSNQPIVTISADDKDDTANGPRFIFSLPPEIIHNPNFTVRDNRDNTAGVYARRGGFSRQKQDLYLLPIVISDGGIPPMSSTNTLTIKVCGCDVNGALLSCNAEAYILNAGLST
Description: SPR, rhCad-11 immobilized, SDP051 as analyte, 2 state reaction model. The method, then:
(§1) To determine the affinity of SDP051 for recombinant his-tagged human Cad-11, rhCad-11 (R&D Systems) was immobilized to the chip at a single concentration, high resolution kinetics were determined for SDP051, and a 2-state reaction binding model was successfully fitted to the kinetic data.
(§2) Kinetic data were obtained at a flow rate of 40 μL/min to minimize any potential mass transfer effects. An analyte concentration series ranging from 12.5 nM to 0.195 nM was prepared by serial dilution. Two repeats of the blank (no mAb) and the 3.125 nM (first and last cycle) concentration of the analyte were programmed into the kinetic runs in order to check the stability of both the surface and analyte over the kinetic cycles. The SDP051 was injected over the Fcs for 360 seconds, long enough to observe the curvature in association phase.
(§3) As rhCad-11 is homodimeric and therefore contained two identical binding epitopes, it is likely that individual mAb molecules become bound sequentially through a first binding site and then both binding sites.

The target of experiment [2] is T1, recombinant his-tagged human Cad-11 …. Description: SPR, rhCad-11 immobilized, SDP051 as analyte, 2 state reaction model (kd1). The method, then: as §1, §2, §3
Experiment [3] has the same target. Description: SPR, rhCad-11 immobilized, SDP051 as analyte, 2 state reaction model (ka1). The method, then:
as §1, §2, §3

Experiment [4] has as its target T2, BSA coupled 37-mer Cad-11 peptide encompassing the Cad-11 immunogen (UniProt P55287 54-90, limits assumed, linked to BSA).
T2 construct: domain: 37-mer peptide encompassing the Cad-11 immunogen; also called Cad-11 antigen; Cad-11 peptide immunogen
T2 peptide (looked up): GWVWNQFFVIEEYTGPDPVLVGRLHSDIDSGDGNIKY
Description: ELISA, BSA-coupled 37-mer cadherin peptide coated at 500 ng/ml, antibody titrated, A450. The method, then:
Reactibind plates (ThermoScientific) were coated with 500 ng/ml of the BSA coupled cadherin 37-mer peptide (NE peptide) corresponding to Cadherins-7, -8, -9, -11, -18, -20, and -24 in 0.05% Tween (EMD, product code 9480) in PBS (pH 7.2) (Gibco(Invitrogen), #20012) at 100 μl volume/well for overnight at 4° C. The peptide containing solution was removed from the well and the plate blocked with a 2% bovine serum albumin (BSA) in PBS, 200 μl volume/well, for 2 h at 22° C. The plate was then washed twice with 200 μl/well of PBS-Tween 0.05% at 22° C. and blotted dry. A dilution series from 5 μg/ml to 8 ng/ml in a volume of 100 μl/well of each the humanized anti-Cad-11 antibodies were incubated in the peptide coated wells and incubated at 22° C. for 1 hr. Antibody solution was removed from the wells and the plate washed twice with 200 μl/well of 0.05% Tween-PBS at 22° C. and blotted dry. The goat-anti mouse IgG (Pierce # 31432) was added to each well to plate at a 1:1000 dilution, 100 μl/well and incubate at 22° C. for 30 min. The secondary antibody solution was removed and the plate washed twice with 200 μl/well of 0.05% Tween-PBS at 22° C. and blotted dry. The reaction was developed by adding 100 μl/well tetramethylbenzidine (TMB) reagent IgG (Pierce # 34022, 1 step Turbo TMB-ELISA) to plate and developed at 22° C. for 5 min.

The target in experiment [5] is T3, Peptide 2 (amino acids G15-N34 of the Cad-11 EC1 domain) (human).
T3 construct: Range counted on the EC1 domain; also called PEP2
T3 peptide: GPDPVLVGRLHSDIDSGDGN
Description: ELISA on coated peptide or protein, antibody at one dilution, goat anti-mouse IgG, TMB, OD450. How it is done:
To determine the epitope within the Cad-11 EC1 domain that the Peptide 4 Cad-11 EC1 antibodies H1M1 and H14 bind, four different peptides spanning the first 37 amino acids of the EC1 region (see FIG. 22) were immobilized in an ELISA format and the ability of the H1M1 and H14 antibodies to bind each of the four peptides was determined. 96-well Reactibind plates were coated overnight at 4° C. with 0.3 ng/well of Peptide 1 (amino acids G1-P18 of the Cad-11 EC1 domain), 0.3 ng/well of Peptide 2 (amino acids G15-N34 of the Cad-11 EC1 domain), 0.3 ng/well of Peptide 3 (amino acids V19-Y37 of the Cad-11 EC1 domain), 0.3 ng/well of the immunogen Peptide 4 (amino acids G1-G33 of the Cad-11 EC1 domain), 20 ng of a fusion protein including the entire EC1 domain (EFL), or 20 ng of control human Ig (Fc-block). The wells were washed twice with PBS-Tween (0.05%), blocked with casein in dH₂0 for 3 hrs at 22° C. and then washed again twice with PBS-Tween (0.05%). Various dilutions of the different Peptide 4 Cad-11 EC1 domain antibodies were transferred to the peptide- or protein-coated wells, incubated for 45 min at 22° C. and then washed twice with PBS-Tween (0.05%). 100 μl of a 1/1000 dilution of goat anti-mouse IgG secondary antibody (Jackson ImmunoResearch, West Grove, Pa.) were added to each well, incubated for 30 min at 22° C. and then washed twice with PBS-Tween (0.05%). 100 μl/well of room temperature TMB reagent was added to each well and color was allowed to develop for 5 min at 22° C.

B1: humanized anti-Cad-11 EC1 antibody SDP051 (Vκ1/VH5) (antibody, IgG4, V domains shown)
VH: EVQLVQSGAEVKKPGASVKVSCKASGYSFTGYFMNWVRQAPGQGLEWIGRINPYTGDTFYNQKFKGRVTITVDKSTSTAYMELSSLRSEDTAVYYCGRLGSRYWYFDVWGQGTTVTVSS
VL: DVLMTQTPLSSPVTLGQPASISCRSSQSIIHSNGNTYLEWYLQKPGQSPQLLIYKVSNRFSGVPDRFTGSGSGTDFTLKISRVEAEDVGVYYCFQGSHVPWTFGQGTKLEIK
notes: humanized IgG4 (S241P), kappa
In the case of B1, the equilibrium dissociation constant (Kd) in experiment [1] stood at 0.379 nM. Besides, the koff in experiment [2] came out at 0.0043 s⁻¹. Also, in experiment [3], the on-rate (kon) came to 613000 M⁻¹ s⁻¹. In experiment [4], the “EC50 (read off the curve)” value was ~0.04 µg/mL.

B2: murine H1M1 monoclonal anti-Cad-11 EC1 antibody (hybridoma H1M1, ATCC PTA-9699) (antibody, V domains shown)
VH: EVQLQQSGPELVKPGASVKISCKASGYSFTGYFMNWVKQSHGKSLEWIGRINPYTGDTFYNQKFKGKATLTVDKSSSTAHMELLSLSSEDSAVYYCGRLGSRYWYFDVWGAGTTVTVSS
VL: DVLMTQTPLSLPVSLGDQASISCRSSQSIIHSNGNTYLEWYLQKPGQSPKLLIYKVSNRFSGVPDRFTGSGSGTDFTLKISRVEAEDLGVYYCFQGSHVPWTFGGGTKLEIK
modifications: Biotinylated when used as the labelled competitor in Example 14; the letters are unchanged.
notes: murine antibody raised against Peptide 4; also called SYN0012; SYN0012/H1M1
Consider B2, for which, in experiment [5], the binding result is listed as “binds”.

Source of the values: US20110045003A1 (SYNOVEX, published 2011).
